T1: hu-M-IL1RAP construct, positions S21-T367 (extracellular domain of the membrane form of human IL1RAP) (human, UniProt Q9NPH3 21-367)
T1 construct: Biotinylated when captured on the Biacore chip
T1 sequence: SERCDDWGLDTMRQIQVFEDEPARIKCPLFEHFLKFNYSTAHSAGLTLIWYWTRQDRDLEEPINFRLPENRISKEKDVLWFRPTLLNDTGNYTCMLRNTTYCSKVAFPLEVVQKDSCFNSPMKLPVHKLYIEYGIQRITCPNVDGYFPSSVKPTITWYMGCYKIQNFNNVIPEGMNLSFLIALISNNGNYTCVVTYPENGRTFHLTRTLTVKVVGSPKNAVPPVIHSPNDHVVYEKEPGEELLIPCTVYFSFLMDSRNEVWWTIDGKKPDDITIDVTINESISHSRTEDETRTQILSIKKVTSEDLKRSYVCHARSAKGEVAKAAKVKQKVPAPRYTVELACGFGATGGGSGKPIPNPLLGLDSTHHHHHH

T2: human IL1RAP (hu-IL1RAP) on human cells (human, UniProt Q9NPH3 21-570)
T2 sequence: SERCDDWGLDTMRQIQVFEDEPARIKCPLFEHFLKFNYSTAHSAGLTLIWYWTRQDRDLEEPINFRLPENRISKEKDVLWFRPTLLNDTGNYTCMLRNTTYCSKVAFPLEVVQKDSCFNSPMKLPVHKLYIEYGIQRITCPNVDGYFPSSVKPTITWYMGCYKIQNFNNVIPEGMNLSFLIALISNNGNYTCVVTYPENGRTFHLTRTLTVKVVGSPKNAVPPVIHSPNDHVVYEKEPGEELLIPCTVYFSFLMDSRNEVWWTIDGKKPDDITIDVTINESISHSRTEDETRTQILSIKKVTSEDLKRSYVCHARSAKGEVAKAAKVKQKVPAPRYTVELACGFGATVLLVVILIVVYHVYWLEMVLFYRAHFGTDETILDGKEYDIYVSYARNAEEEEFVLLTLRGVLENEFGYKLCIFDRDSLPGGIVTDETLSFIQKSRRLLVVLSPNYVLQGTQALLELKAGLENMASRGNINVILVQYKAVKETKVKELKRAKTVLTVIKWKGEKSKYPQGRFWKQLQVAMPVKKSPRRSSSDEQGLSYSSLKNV

B1: H7 Fab (VH F29E/N57G/R96A) (Fab, V domains shown)
VH: EVQLVESGGGLVQPGGSLRLSCAASGFTESNYAMSWVRQAPGKGLEWVATVTEGGDYGYYLDDVKGRFTISRDNAKNSLYLQMNSLRAEDTAVYYCARDAWPYFFDYWGQGTLVTVSS
VL: DIQMTQSPSSLSASVGDRVTITCRASENIYSNLAWYQQKPGKSPKLLVYGAKNLADGVPSRFSGSGSGTDYTLTISSLQPEDFATYYCQHFWTTPRTFGGGTKVEIK
notes: Fab with 8xHis tag
B2: H9 Fab (VH G54V/R96A) (Fab, V domains shown)
VH: EVQLVESGGGLVQPGGSLRLSCAASGFTFSNYAMSWVRQAPGKGLEWVATVTEGVDYNYYLDDVKGRFTISRDNAKNSLYLQMNSLRAEDTAVYYCARDAWPYFFDYWGQGTLVTVSS
VL: DIQMTQSPSSLSASVGDRVTITCRASENIYSNLAWYQQKPGKSPKLLVYGAKNLADGVPSRFSGSGSGTDYTLTISSLQPEDFATYYCQHFWTTPRTFGGGTKVEIK
notes: Fab with 8xHis tag
B3: H10 Fab (VH F29S/D55G/R96S) (Fab, V domains shown)
VH: EVQLVESGGGLVQPGGSLRLSCAASGFTSSNYAMSWVRQAPGKGLEWVATVTEGGGYNYYLDDVKGRFTISRDNAKNSLYLQMNSLRAEDTAVYYCARDSWPYFFDYWGQGTLVTVSS
VL: DIQMTQSPSSLSASVGDRVTITCRASENIYSNLAWYQQKPGKSPKLLVYGAKNLADGVPSRFSGSGSGTDYTLTISSLQPEDFATYYCQHFWTTPRTFGGGTKVEIK
notes: Fab with 8xHis tag
B4: H8 Fab (VH F29S/E52aV/R96A) (Fab, V domains shown)
VH: EVQLVESGGGLVQPGGSLRLSCAASGFTSSNYAMSWVRQAPGKGLEWVATVTVGGDYNYYLDDVKGRFTISRDNAKNSLYLQMNSLRAEDTAVYYCARDAWPYFFDYWGQGTLVTVSS
VL: DIQMTQSPSSLSASVGDRVTITCRASENIYSNLAWYQQKPGKSPKLLVYGAKNLADGVPSRFSGSGSGTDYTLTISSLQPEDFATYYCQHFWTTPRTFGGGTKVEIK
notes: Fab with 8xHis tag
B5: K10/H2 IgG (VL-A51Y, VH-R96D) (antibody, V domains shown)
VH: EVQLVESGGGLVQPGGSLRLSCAASGFTFSNYAMSWVRQAPGKGLEWVATVTEGGDYNYYLDDVKGRFTISRDNAKNSLYLQMNSLRAEDTAVYYCARDDWPYFFDYWGQGTLVTVSS
VL: DIQMTQSPSSLSASVGDRVTITCRASENIYSNLAWYQQKPGKSPKLLVYGYKNLADGVPSRFSGSGSGTDYTLTISSLQPEDFATYYCQHFWTTPRTFGGGTKVEIK
B6: K10 IgG (VL-A51Y) (antibody, V domains shown)
VH: EVQLVESGGGLVQPGGSLRLSCAASGFTFSNYAMSWVRQAPGKGLEWVATVTEGGDYNYYLDDVKGRFTISRDNAKNSLYLQMNSLRAEDTAVYYCARDRWPYFFDYWGQGTLVTVSS
VL: DIQMTQSPSSLSASVGDRVTITCRASENIYSNLAWYQQKPGKSPKLLVYGYKNLADGVPSRFSGSGSGTDYTLTISSLQPEDFATYYCQHFWTTPRTFGGGTKVEIK
B7: Parent IgG Ab (full-length IgG of h11C5_C59Y/A43S) (antibody, V domains shown)
VH: EVQLVESGGGLVQPGGSLRLSCAASGFTFSNYAMSWVRQAPGKGLEWVATVTEGGDYNYYLDDVKGRFTISRDNAKNSLYLQMNSLRAEDTAVYYCARDRWPYFFDYWGQGTLVTVSS
VL: DIQMTQSPSSLSASVGDRVTITCRASENIYSNLAWYQQKPGKSPKLLVYGAKNLADGVPSRFSGSGSGTDYTLTISSLQPEDFATYYCQHFWTTPRTFGGGTKVEIK
B8: K10/H3 IgG (VL-A51Y, VH-V51S) (antibody, V domains shown)
VH: EVQLVESGGGLVQPGGSLRLSCAASGFTFSNYAMSWVRQAPGKGLEWVATSTEGGDYNYYLDDVKGRFTISRDNAKNSLYLQMNSLRAEDTAVYYCARDRWPYFFDYWGQGTLVTVSS
VL: DIQMTQSPSSLSASVGDRVTITCRASENIYSNLAWYQQKPGKSPKLLVYGYKNLADGVPSRFSGSGSGTDYTLTISSLQPEDFATYYCQHFWTTPRTFGGGTKVEIK
B9: K17 IgG (VL-A51Y/W92K) (antibody, V domains shown)
VH: EVQLVESGGGLVQPGGSLRLSCAASGFTFSNYAMSWVRQAPGKGLEWVATVTEGGDYNYYLDDVKGRFTISRDNAKNSLYLQMNSLRAEDTAVYYCARDRWPYFFDYWGQGTLVTVSS
VL: DIQMTQSPSSLSASVGDRVTITCRASENIYSNLAWYQQKPGKSPKLLVYGYKNLADGVPSRFSGSGSGTDYTLTISSLQPEDFATYYCQHFKTTPRTFGGGTKVEIK
B10: K13 IgG (VL-A51Y/W92I) (antibody, V domains shown)
VH: EVQLVESGGGLVQPGGSLRLSCAASGFTFSNYAMSWVRQAPGKGLEWVATVTEGGDYNYYLDDVKGRFTISRDNAKNSLYLQMNSLRAEDTAVYYCARDRWPYFFDYWGQGTLVTVSS
VL: DIQMTQSPSSLSASVGDRVTITCRASENIYSNLAWYQQKPGKSPKLLVYGYKNLADGVPSRFSGSGSGTDYTLTISSLQPEDFATYYCQHFITTPRTFGGGTKVEIK
B11: H5 Fab (VH V51S/G54H) (Fab, V domains shown)
VH: EVQLVESGGGLVQPGGSLRLSCAASGFTFSNYAMSWVRQAPGKGLEWVATSTEGHDYNYYLDDVKGRFTISRDNAKNSLYLQMNSLRAEDTAVYYCARDRWPYFFDYWGQGTLVTVSS
VL: DIQMTQSPSSLSASVGDRVTITCRASENIYSNLAWYQQKPGKSPKLLVYGAKNLADGVPSRFSGSGSGTDYTLTISSLQPEDFATYYCQHFWTTPRTFGGGTKVEIK
notes: Fab with 8xHis tag
B12: K5 Fab (VL Y30W/W92L) (Fab, V domains shown)
VH: EVQLVESGGGLVQPGGSLRLSCAASGFTFSNYAMSWVRQAPGKGLEWVATVTEGGDYNYYLDDVKGRFTISRDNAKNSLYLQMNSLRAEDTAVYYCARDRWPYFFDYWGQGTLVTVSS
VL: DIQMTQSPSSLSASVGDRVTITCRASENIWSNLAWYQQKPGKSPKLLVYGAKNLADGVPSRFSGSGSGTDYTLTISSLQPEDFATYYCQHFLTTPRTFGGGTKVEIK
notes: Fab with 8xHis tag
B13: K18 Fab (VL A51Y/L33G) (Fab, V domains shown)
VH: EVQLVESGGGLVQPGGSLRLSCAASGFTFSNYAMSWVRQAPGKGLEWVATVTEGGDYNYYLDDVKGRFTISRDNAKNSLYLQMNSLRAEDTAVYYCARDRWPYFFDYWGQGTLVTVSS
VL: DIQMTQSPSSLSASVGDRVTITCRASENIYSNGAWYQQKPGKSPKLLVYGYKNLADGVPSRFSGSGSGTDYTLTISSLQPEDFATYYCQHFWTTPRTFGGGTKVEIK
notes: Fab with 8xHis tag
B14: K6 Fab (VL Y30W/W92F) (Fab, V domains shown)
VH: EVQLVESGGGLVQPGGSLRLSCAASGFTFSNYAMSWVRQAPGKGLEWVATVTEGGDYNYYLDDVKGRFTISRDNAKNSLYLQMNSLRAEDTAVYYCARDRWPYFFDYWGQGTLVTVSS
VL: DIQMTQSPSSLSASVGDRVTITCRASENIWSNLAWYQQKPGKSPKLLVYGAKNLADGVPSRFSGSGSGTDYTLTISSLQPEDFATYYCQHFFTTPRTFGGGTKVEIK
notes: Fab with 8xHis tag
B15: K11 Fab (VL A51R/K52G) (Fab, V domains shown)
VH: EVQLVESGGGLVQPGGSLRLSCAASGFTFSNYAMSWVRQAPGKGLEWVATVTEGGDYNYYLDDVKGRFTISRDNAKNSLYLQMNSLRAEDTAVYYCARDRWPYFFDYWGQGTLVTVSS
VL: DIQMTQSPSSLSASVGDRVTITCRASENIYSNLAWYQQKPGKSPKLLVYGRGNLADGVPSRFSGSGSGTDYTLTISSLQPEDFATYYCQHFWTTPRTFGGGTKVEIK
notes: Fab with 8xHis tag

biological target: T1, hu-M-IL1RAP construct, positions …; assay: SPR, Fab analyte, 37 C
Protocol: (§1) Surface plasmon resonance (SPR) analysis was used to determine binding affinity for hu-M-IL1RAP of the purified Fabs containing the selected single, double, and triple mutations in either the VL or VH regions using a BIACORE™ 8K instrument. […] For kinetics measurements, 5 nM biotinylated hu-M-IL1RAP was captured at 10 μL/min to achieve ˜50 response units in the second flow cell (FC2). FC1 was kept as a reference. […] The sensorgrams were recorded and subjected to reference and buffer subtraction before data analysis with the BIACORE® 8K Evaluation Software (version 1.1.1.7442). Association rates (kₒₙ) and dissociation rates (koff) were calculated using a simple one-to-one Langmuir binding model. The equilibrium dissociation constant (KD) was calculated as the ratio of koff/kₒₙ.

Point of comparison: B3, Kd 0.131 nM. Against it:
- B1 — within 1.5-fold, 0.0998 nM
- B2 — 1.6-fold lower, 0.0811 nM
- B4 — within 1.5-fold, 0.17 nM

Point of comparison: B1, koff 0.000511 s⁻¹. Against it:
- B2 — within 1.5-fold, 0.000401 s⁻¹
- B3 — within 1.5-fold, 0.000702 s⁻¹
- B4 — 1.8-fold higher, 0.000899 s⁻¹

Point of comparison: B3, kon 5.34e+06 M⁻¹ s⁻¹. Against it:
- B1 — within 1.5-fold, 5.13e+06 M⁻¹ s⁻¹
- B2 — within 1.5-fold, 4.94e+06 M⁻¹ s⁻¹
- B4 — within 1.5-fold, 5.27e+06 M⁻¹ s⁻¹

biological target: T2, human IL1RAP (hu-IL1RAP) on human cells; assay: cell-based or functional assay

Point of comparison: B10, “HEK-Blue, IL-1β, % inhibition at 100 nM (IgG)” value 100%. Against it:
- B5 — the same, 100%
- B6 — the same, 100%
- B7 — lower, 99%
- B8 — the same, 100%
- B9 — the same, 100%

Point of comparison: B6, “HEK-Blue, IL-1β, IC50 (IgG)” value 230 pM. Against it:
- B5 — within 1.5-fold, 285 pM
- B7 — 1.6-fold higher, 363 pM
- B8 — within 1.5-fold, 177 pM
- B9 — 2-fold higher, 468 pM
- B10 — within 1.5-fold, 332 pM

Point of comparison: B8, “HEK-Blue, IL-33, % inhibition at 100 nM (IgG)” value 99%. Against it:
- B5 — higher, 100%
- B6 — higher, 100%
- B7 — the same, 99%
- B9 — the same, 99%
- B10 — higher, 100%

Point of comparison: B6, “HEK-Blue, IL-33, IC50 (IgG)” value 1.37 nM. Against it:
- B5 — within 1.5-fold, 1.06 nM
- B7 — within 1.5-fold, 2.04 nM
- B8 — 3.9-fold lower, 0.354 nM
- B9 — 2-fold higher, 2.74 nM
- B10 — within 1.5-fold, 1.77 nM

Point of comparison: B6, “HEK-Blue, IL-36α, % inhibition at 100 nM (IgG)” value 100%. Against it:
- B5 — the same, 100%
- B7 — lower, 89%
- B8 — the same, 100%
- B9 — the same, 100%
- B10 — the same, 100%

Point of comparison: B8, “HEK-Blue, IL-36α, IC50 (IgG)” value 280 pM. Against it:
- B5 — within 1.5-fold, 340 pM
- B6 — within 1.5-fold, 247 pM
- B7 — within 1.5-fold, 340 pM
- B9 — 1.8-fold higher, 495 pM
- B10 — within 1.5-fold, 303 pM

biological target: T1, hu-M-IL1RAP construct, positions …; assay: SPR, Fab analyte, 25 C
Protocol: as §1

Point of comparison: B14, Kd 0.0147 nM. Against it:
- B11 — 3.4-fold higher, 0.05 nM
- B12 — 3.6-fold higher, 0.0524 nM
- B13 — within 1.5-fold, 0.0189 nM
- B15 — within 1.5-fold, 0.0212 nM

Point of comparison: B13, koff 0.000123 s⁻¹. Against it:
- B11 — 1.9-fold higher, 0.000235 s⁻¹
- B12 — 2.2-fold higher, 0.000268 s⁻¹
- B14 — 2-fold lower, 6.25e-05 s⁻¹
- B15 — within 1.5-fold, 0.000102 s⁻¹

Point of comparison: B13, kon 6.52e+06 M⁻¹ s⁻¹. Against it:
- B11 — within 1.5-fold, 4.71e+06 M⁻¹ s⁻¹
- B12 — within 1.5-fold, 5.11e+06 M⁻¹ s⁻¹
- B14 — 1.5-fold lower, 4.25e+06 M⁻¹ s⁻¹
- B15 — within 1.5-fold, 4.83e+06 M⁻¹ s⁻¹
